6 molecules from patent US20240025971A1 (ATRECA, published 2024) can be followed below.

The labels stand for the following.
B1: AB-009174 (antibody, V domains shown)
VH: QVQLQQWGAGLLKPSETLSLTCAVYGESFSGYYWNWIRQPPGKGLEWIGEIDQSGSTNYNPSLKSRVTISVDTSKNQFSLKLTSVTAADTAVYYCARVSGRMQLWLRAGYMDVWDKGTTVTVSS
VL: QSALTQPASVSGSPGQSITISCTGTSSDVGRYNYVSWYQQHPGKAPKLMIYEVSNRPSGVSNRFSGSKSGNTASLTISGLQAEDEADYYCSSYTTSSTRVFGGGTKLTVL
notes: human IgG1
B2: AB-009231 (antibody, V domains shown)
VH: EVQLVESGGGLVQPGGSLRLSCAASGFTFSSYWMSWVRQAPGKGLEWVANIKQDGSEKYYVDSVKGRFTISRDNAKNSLYLQMNSLRAEDTAVYYCARVSMRFLEWSFYYYYYMDVWGKGTTVTVSS
VL: SSELTQDPAVSVALGQTVRITCQGDSLRSYYASWYQQKPGQAPVLVIYGKNNRPSGIPDRFSGSSSGNTASLTITGAQAEDEADYYCNSRDSSGNHLGVVFGGGTKLTVL
notes: human IgG1
B3: AB-009221 (antibody, V domains shown)
VH: EVQLVESGGGLVQPGGSLRLSCAASGFTVSSNYMSWVRQAPGKGLEWVSVIYSGGSTYYADSVKGRFTISRHNSKNTLYLQMNSLRAEDTAVYYCARDRNAFDIWGQGTMVIVSS
VL: DIQMTQSPSSLSASVGDRVSITCQASQDISNDLNWYQQKPGKAPKLLVYDASKLETGVPPRFSGSGSGTDFTFTISSLQPEDIATYYCQQYDNLPLYSFGQGTKLEIK
notes: human IgG1
B4: AB-009237 (antibody, V domains shown)
VH: QVQLLQSGAEVKKPGASVSVSCKASGFTFTSYYFHWVRQAPGQGLEWMGIVSPAGGSTNYAQKFQGRVTMTRDTSTSTVHMELRNVRYDDTAVFYCARSVYCSSPSCPHGMDVWGPGTMVTVSS
VL: DIQVTQSPSTLSASVGDRVTITCRASQSILTYLAWYQQKPGKAPNLLIYKASNLQSGVPSRFSGSGSGTEFTLTISSLQPDDFATYHCQQYKSYPFSFGQGTKLAIK
notes: human IgG1
B5: AB-009239 (antibody, V domains shown)
VH: QVHLEESGGGVVQPGRSLRLSCAASGFTFSGYAMHWVRQAPGKGLAWVAVISYDGTNKYYTDSVKGRFSISRDNSNNTLYLQMNSLRTEDTALYYCARALTGYYGQFDFDSWGQGTLVTVSS
VL: DVVMTQSPLSLPVTLGQPASISCRSSQSLVHSDGHTYLNWIQQRPGQSPRRLIYKVSNRDSGVPDRFSGSGSGTDFTLKISRVEADDVGIYYCVQGTHWPPWTFGQGTKVEIK
notes: human IgG1
B6: AB-009202 (antibody, V domains shown)
VH: QVQLVESGGGVVQPGRSLRLSCAASGFTFSSYGMHWVRQAPGKGLEWVAVIWYDGSNKYYADSVKGRFTISRDNSKNTLYLQMNSLRAEDTAVYYCARDGGPEYYFDYWGQGTLVTVSS
VL: SYELTQPPSVSVSPGQTARITCSGDALPKQYAYWYQQKPGQAPVLVIYKDSERPSGIPERFSGSSSGTTVTLTISGVQAEDEADYYCQSADSSGTYNVVFGGGTKLTVL
notes: human IgG1

The target of one test is SARS-CoV-2 Nucleocapsid (N) protein (SARS-CoV-2, UniProt P0DTC9 1-419). Put plainly: BLI.
Consider B1, for which the binding result was “no binding (tested: 300 nM)”.
The same measure, in the same setting: for B2 the value was “no binding (tested: 300 nM)”.
On the same count and under the same terms, for B3 the value was “no binding (tested: 300 nM)”.
Still for that read-out and setting: for B4 the value was “no binding (tested: 300 nM)”; for B5, “no binding (tested: 300 nM)”; for B6, “no binding (tested: 300 nM)”.

In a further test the target is T1, SARS-CoV-2 S2 protein (SARS-CoV-2, UniProt P0DTC2 686-1213).
T1 construct: domain: S2 protein; also called S2 monomer
The experiment in a line: BLI.
As for B1, the binding result is on record as “no binding (tested: 300 nM)”.
Still for that read-out and setting: next, B2: “no binding (tested: 300 nM)”.
The same measure, in the same setting: next, B3: “no binding (tested: 300 nM)”.
The same measure, in the same setting: for B4 the value was “no binding (tested: 300 nM)”; for B5, “no binding (tested: 300 nM)”; for B6, “no binding (tested: 300 nM)”.

Another test concerns the target T2, SARS-CoV-2 S1 protein (SARS-CoV-2, UniProt P0DTC2 16-685).
T2 construct: domain: S1 protein; also called S1 monomer
Put plainly: BLI. For orientation: BLI is a label-free optical method that tracks binding on a fibre tip over time.
With B1, the binding result is reported as “no binding (tested: 300 nM)”.
Same read-out and setting: for B2 the value was “no binding (tested: 300 nM)”; for B4, “no binding (tested: 300 nM)”.
The same measure, in the same setting: for B5 the value was “no binding (tested: 300 nM)”.
Still for that read-out and setting: next, B6: “no binding (tested: 300 nM)”.
